Source: US12012599B2, “Compositions and methods for modulating left-right differentiation factor (LEFTY) and bone morphogenic factor (BMP)” (CZ Biohub SF LLC, priority 2018, dated 2024)

T1: BMP7-BMPR2 interaction (Homo sapiens, UniProt Q13873)
T1 construct: endogenous in cells; host or cells: MDA-MB-231
T1 sequence (Q13873 27-1038): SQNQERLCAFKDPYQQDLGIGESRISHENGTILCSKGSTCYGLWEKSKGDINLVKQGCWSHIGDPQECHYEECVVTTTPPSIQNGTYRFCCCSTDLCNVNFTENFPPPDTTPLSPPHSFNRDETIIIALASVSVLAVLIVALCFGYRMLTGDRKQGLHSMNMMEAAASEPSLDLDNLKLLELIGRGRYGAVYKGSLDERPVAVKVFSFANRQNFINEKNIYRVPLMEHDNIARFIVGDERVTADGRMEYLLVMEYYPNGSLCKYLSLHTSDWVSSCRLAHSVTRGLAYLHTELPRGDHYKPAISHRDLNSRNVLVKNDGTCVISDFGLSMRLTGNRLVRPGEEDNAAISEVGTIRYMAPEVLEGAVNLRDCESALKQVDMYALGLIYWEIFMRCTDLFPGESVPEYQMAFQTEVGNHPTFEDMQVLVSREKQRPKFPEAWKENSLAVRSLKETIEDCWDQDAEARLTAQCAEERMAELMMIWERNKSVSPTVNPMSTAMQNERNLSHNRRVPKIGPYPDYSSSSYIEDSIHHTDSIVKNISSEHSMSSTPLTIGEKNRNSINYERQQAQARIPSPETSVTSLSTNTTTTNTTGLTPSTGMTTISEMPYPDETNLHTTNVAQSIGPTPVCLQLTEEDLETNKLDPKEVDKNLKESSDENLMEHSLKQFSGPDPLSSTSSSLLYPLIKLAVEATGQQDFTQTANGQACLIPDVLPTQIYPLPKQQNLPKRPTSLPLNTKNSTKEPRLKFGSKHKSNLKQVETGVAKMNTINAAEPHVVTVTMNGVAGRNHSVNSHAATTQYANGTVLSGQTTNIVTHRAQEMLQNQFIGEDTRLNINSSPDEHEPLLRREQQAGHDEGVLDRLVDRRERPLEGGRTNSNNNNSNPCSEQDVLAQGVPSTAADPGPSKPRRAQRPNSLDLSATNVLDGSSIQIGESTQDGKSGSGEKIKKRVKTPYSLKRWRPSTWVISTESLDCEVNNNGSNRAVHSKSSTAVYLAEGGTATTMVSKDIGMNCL

B1: BMP7: bone morphogenetic protein 7, BMPR2 ligand (protein)
chain: STGSKQRSQNRSKTPKNQEALRMANVAENSSSDQRQACKKHELYVSFRDLGWQDWIIAPEGYAAYYCEGECAFPLNSYMNATNHAIVQTLVHFINPETVPKPCCAPTQLNAISVLYFDDSSNVILKKYRNMVVRACGCH
B2: LEFTY1: left-right determination factor 1, secreted TGF-β superfamily protein; generic LEFTY may mean LEFTY1 or LEFTY2 (protein, UniProt O75610 77-366, looked up)
Left-right determination …: RFSQSFREVAGRFLALEASTHLLVFGMEQRLPPNSELVQAVLRLFQEPVPKAALHRHGRLSPRSARARVTVEWLRVRDDGSNRTSLIDSRLVSVHESGWKAFDVTEAVNFWQQLSRPRQPLLLQVSVQREHLGPLASGAHKLVRFASQGAPAGLGEPQLELHTLDLGDYGAQGDCDPEAPMTEGTRCCRQEMYIDLQGMKWAENWVLEPPGFLAYECVGTCRQPPEALAFKWPFLGPRQCIASETDSLPMIVSIKEGGRTRPQVVSLPNMRVQKCSCASDGALVPRRLQP

Columns and labels:
[1] = system: mammary gland; assay: Mammary branching after injection of LEFTY1- or BMP7-secreting L1 fibroblasts into mammary fat-pad; format: in vivo, mouse; settings: secreted ligand from transplanted fibroblasts; whole mount staining
Description: FIGS. 2A-2F. Effect of LEFTY1 and BMP7 in mammary glands. […] Ducts and terminal end buds (TEB) were analyzed for BMP7 positive cells. SMA and DAPI were used to identify basal cells and for nuclear counterstain, respectively (Magnification 200×). […] Ducts and terminal end buds (TEB) were analyzed for LEFTY1 positive cells. SMA and DAPI were used to identify basal cells and for nuclear counterstain, respectively (Magnification 200×). […] Four to seven images per mouse were analyzed for quantification. […] Four to seven images per mice were analyzed for quantification. […] Data are represented as median±S.E.M. Statistical analysis, Student's T-test, *p<0.05; ***p<0.001.
FIGS. 3A-3C. Effects of LEFTY1 and BMP7 on the morphology of the mouse mammary gland. […] Four to seven images per mouse were analyzed for quantification. […] Four to seven images per mouse were analyzed for quantification. Data are represented as median±S.E.M. Statistical analysis, Student's T-test, *p<0.05; **p<0.01; ****p<0.0001.
We first developed a system where transplantation of engineered non-autologous mammary fibroblast cells secreted particular ligands (FIG. 2C). […] These opposing results were unexpected, since both LEFTY1 and BMP7 have been described to have similar suppressive roles on NODAL/SMAD2/3 signaling (Chen et al., Current biology: CB 14, 618-624 (2004) and Yeo et al., Molecular cell 7, 949-957 (2001)).

[2] = system: pSMAD5; assay: pSMAD5 immunofluorescence in MDA-MB-231; format: cell-based; settings: 50 ng/mL BMP7 30 minutes, absence or presence of LEFTY 200 ng/mL
Description: (§1) FIGS. 20 and 21 are data from an experiment in which the breast cancer cell line MDA-MB-231 was plated and serum starved for 24 hours. 50 ng/mL BMP7 was added for 30 minutes to activate pSMAD5, either in the absence or presence of exogenous LEFTY (200 ng/mL). LEFTY-BMPR2 interaction, BMP7-BMPR2 interaction (as visualized by Proximity Ligation Assay, red), pSMAD5 status (As visualized by Immunofluorescence, green) were monitored and captured.
as §1, with “Breast” for “FIGS. 20 and 21 are data from an experiment in which the breast”, “(200 ng/mL) and LEFTY Antagonist (sc7408p) increasing in dose from 1x to 256x (x=25” for “(200”

[3] = biological target: T1, BMP7-BMPR2 interaction; assay: Proximity Ligation Assay of BMP7-BMPR2 interaction in MDA-MB-231; format: cell-based; settings: 50 ng/mL BMP7 30 minutes, exogenous LEFTY 200 ng/mL
Description: as §1
For the PLA assay (DUOLink, OLink Biosciences, Sigma-Aldrich #DUO92102), cells were seeded and treated on 13 mm glass coverslips previously coated with Poly-L-Lysine (Millipore). The cells were fixed with ice cold 100% Methanol for 5 minutes at −20° C. and then rehydrated thrice in PBS for 5 min each. Coverslips were blocked for 30 min with PBS+3% BSA and then incubated with appropriate dilution of primary antibodies in PBS+1% BSA for 1 h in a moist environment at room temperature. Rabbit anti-LEFTY1 and Thermo mouse anti-BMPR2 were used to characterize the interaction between LEFTY and BMPR2 (Table S2). […]
Breast cancer cell line MDA-MB-231 was plated and serum starved for 24 hours. […] LEFTY-BMPR2 interaction, BMP7-BMPR2 interaction (as visualized by Proximity Ligation Assay, red), pSMAD5 status (As visualized by Immunofluorescence, green) were monitored and captured.

| Molecule | extent and number of mammary tree branches [1] | pSMAD5 status [2] | BMP7-BMPR2 interaction [3] |
| --- | --- | --- | --- |
| B1 | decreased | activates pSMAD5 |  |
| B2 | significant localized increase | reduces | reduces BMP7-BMPR2 interactions |
